Experimental data reported in the Human Domainome abundance scans (Beltran et al. 2025).
± gives the uncertainty stated by the source.

B1: Tripartite motif-containing protein 49C, residues 87 to 133; numbered along this chain, P0CI26 (parent)
chain: SSEEQMCGTHRETKKIFCEVDRSLLCLLCSSSQEHRYHRHRPIEWAA

Variants of: B1
Experiment: abundance fitness (aPCA) (normalised: wild type 0, dead -1); higher = more abundant; growth selection in yeast, the domain comes from the species named
Conditions: Homo sapiens

Variant | abundance fitness
SSEEQMCGTHRETKKIFCEVDRILLCLLCSSSQEHRYHRHRPIEWAA [S23I] | -0.007 ± 0.2
SSEEQMCGTHRETKKIFCEVDRNLLCLLCSSSQEHRYHRHRPIEWAA [S23N] | -0.835 ± 0.4
SSEEQMCGTHRETKKIFCEVDRRLLCLLCSSSQEHRYHRHRPIEWAA [S23R] | 0.058 ± 0.093
SSEEQMCGTHRETKKIFCEVDRELLCLLCSSSQEHRYHRHRPIEWAA [S23E] | 0.155 ± 0.11
SSEEQMCGTHRETKKIFCEVDRHLLCLLCSSSQEHRYHRHRPIEWAA [S23H] | -0.277 ± 0.18
SSEEQMCGTHRETKKIFCEVDRFLLCLLCSSSQEHRYHRHRPIEWAA [S23F] | -0.944 ± 0.2
SSEEQMCGTHRETKKIFCEVDRKLLCLLCSSSQEHRYHRHRPIEWAA [S23K] | -0.035 ± 0.15
SSEEQMCGTHRETKKIFCEVDRQLLCLLCSSSQEHRYHRHRPIEWAA [S23Q] | -0.152 ± 0.15
SSEEQMCGTHRETKKIFCEVDRMLLCLLCSSSQEHRYHRHRPIEWAA [S23M] | -0.062 ± 0.14
SSEEQMCGTHRETKKIFCEVDRCLLCLLCSSSQEHRYHRHRPIEWAA [S23C] | -0.055 ± 0.13
SSEEQMCGTHRETKKIFCEVDRVLLCLLCSSSQEHRYHRHRPIEWAA [S23V] | -0.132 ± 0.096
SSEEQMCGTHRETKKIFCEVDRTLLCLLCSSSQEHRYHRHRPIEWAA [S23T] | 0.409 ± 0.14
SSEEQMCGTHRETKKIFCEVDRGLLCLLCSSSQEHRYHRHRPIEWAA [S23G] | -0.31 ± 0.094
SSEEQMCGTHRETKKIFCEVDRALLCLLCSSSQEHRYHRHRPIEWAA [S23A] | -0.035 ± 0.087
SSEEQMCGTHRETKKIFCEVDRPLLCLLCSSSQEHRYHRHRPIEWAA [S23P] | -0.686 ± 0.17
SSEEQMCGTHRETKKIFCEVDRSLLGLLCSSSQEHRYHRHRPIEWAA [C26G] | -0.734 ± 0.09
SSEEQMCGTHRETKKIFCEVDRSLLKLLCSSSQEHRYHRHRPIEWAA [C26K] | -0.894 ± 0.23
SSEEQMCGTHRETKKIFCEVDRSLLYLLCSSSQEHRYHRHRPIEWAA [C26Y] | -1.15 ± 0.24
SSEEQMCGTHRETKKIFCEVDRSLLLLLCSSSQEHRYHRHRPIEWAA [C26L] | -0.787 ± 0.15
SSEEQMCGTHRETKKIFCEVDRSLLQLLCSSSQEHRYHRHRPIEWAA [C26Q] | -0.776 ± 0.36
SSEEQMCGTHRETKKIFCEVDRSLLWLLCSSSQEHRYHRHRPIEWAA [C26W] | -1.09 ± 0.16
SSEEQMCGTHRETKKIFCEVDRSLLVLLCSSSQEHRYHRHRPIEWAA [C26V] | -1.1 ± 0.14
SSEEQMCGTHRETKKIFCEVDRSLLELLCSSSQEHRYHRHRPIEWAA [C26E] | -0.806 ± 0.19
SSEEQMCGTHRETKKIFCEVDRSLLHLLCSSSQEHRYHRHRPIEWAA [C26H] | -0.962 ± 0.45
SSEEQMCGTHRETKKIFCEVDRSLLRLLCSSSQEHRYHRHRPIEWAA [C26R] | -0.798 ± 0.12
SSEEQMCGTHRETKKIFCEVDRSLLDLLCSSSQEHRYHRHRPIEWAA [C26D] | -0.118 ± 0.29
SSEEQMCGTHRETKKIFCEVDRSLLTLLCSSSQEHRYHRHRPIEWAA [C26T] | -1.05 ± 0.38
SSEEQMCGTHRETKKIFCEVDRSLLMLLCSSSQEHRYHRHRPIEWAA [C26M] | -1.08 ± 0.25

Variant | abundance fitness
SSEEQMCGTHRETKKIFCEVDRSLLALLCSSSQEHRYHRHRPIEWAA [C26A] | -0.891 ± 0.18
SSEEQMCGTHRETKKIFCEVDRSLLSLLCSSSQEHRYHRHRPIEWAA [C26S] | -0.777 ± 0.14
SSEEQMCGTHRETKKIFCEVDRSLLFLLCSSSQEHRYHRHRPIEWAA [C26F] | -0.901 ± 0.26
SSEEQMCGTHRETKKIFCEVDRSNLCLLCSSSQEHRYHRHRPIEWAA [L24N] | -0.212 ± 0.17
SSEEQMCGTHRETKKIFCEVDRSYLCLLCSSSQEHRYHRHRPIEWAA [L24Y] | -0.085 ± 0.13
SSEEQMCGTHRETKKIFCEVDRSPLCLLCSSSQEHRYHRHRPIEWAA [L24P] | -0.217 ± 0.13
SSEEQMCGTHRETKKIFCEVDRSVLCLLCSSSQEHRYHRHRPIEWAA [L24V] | -0.139 ± 0.096
SSEEQMCGTHRETKKIFCEVDRSELCLLCSSSQEHRYHRHRPIEWAA [L24E] | -0.106 ± 0.12
SSEEQMCGTHRETKKIFCEVDRSILCLLCSSSQEHRYHRHRPIEWAA [L24I] | -0.61 ± 0.2
SSEEQMCGTHRETKKIFCEVDRSWLCLLCSSSQEHRYHRHRPIEWAA [L24W] | -0.095 ± 0.13
SSEEQMCGTHRETKKIFCEVDRSDLCLLCSSSQEHRYHRHRPIEWAA [L24D] | -0.294 ± 0.14
SSEEQMCGTHRETKKIFCEVDRSQLCLLCSSSQEHRYHRHRPIEWAA [L24Q] | -0.159 ± 0.11
SSEEQMCGTHRETKKIFCEVDRSCLCLLCSSSQEHRYHRHRPIEWAA [L24C] | -0.174 ± 0.12
SSEEQMCGTHRETKKIFCEVDRSSLCLLCSSSQEHRYHRHRPIEWAA [L24S] | -0.306 ± 0.12
SSEEQMCGTHRETKKIFCEVDRSGLCLLCSSSQEHRYHRHRPIEWAA [L24G] | -0.253 ± 0.083
SSEEQMCGTHRETKKIFCEVDRSTLCLLCSSSQEHRYHRHRPIEWAA [L24T] | -0.099 ± 0.15
SSEEQMCGTHRETKKIFCEVDRSFLCLLCSSSQEHRYHRHRPIEWAA [L24F] | -0.069 ± 0.19
SSEEQMCGTHRETKKIFCEVDRSRLCLLCSSSQEHRYHRHRPIEWAA [L24R] | -0.213 ± 0.098
SSEEQMCGTHRETKKIFCEVDRSKLCLLCSSSQEHRYHRHRPIEWAA [L24K] | -0.403 ± 0.14
SSEEQMCGTHRETKKIFCEVDRSHLCLLCSSSQEHRYHRHRPIEWAA [L24H] | -0.298 ± 0.22
SSEEQMCGTHRETKKIFCEVDRSALCLLCSSSQEHRYHRHRPIEWAA [L24A] | -0.044 ± 0.09
SSEEQMCGTHRETKKIFCEVTRSLLCLLCSSSQEHRYHRHRPIEWAA [D21T] | 0.061 ± 0.11
SSEEQMCGTHRETKKIFCEVWRSLLCLLCSSSQEHRYHRHRPIEWAA [D21W] | -0.198 ± 0.098
SSEEQMCGTHRETKKIFCEVPRSLLCLLCSSSQEHRYHRHRPIEWAA [D21P] | -1.02 ± 0.17
SSEEQMCGTHRETKKIFCEVMRSLLCLLCSSSQEHRYHRHRPIEWAA [D21M] | -0.604 ± 0.14
SSEEQMCGTHRETKKIFCEVLRSLLCLLCSSSQEHRYHRHRPIEWAA [D21L] | -0.573 ± 0.11
SSEEQMCGTHRETKKIFCEVRRSLLCLLCSSSQEHRYHRHRPIEWAA [D21R] | -0.152 ± 0.083
